Tests used:
[1] = biological target: laminin (Engelbreth-Holm-Swarm tumor laminin, free of entactin) (mouse (endogenous in EHS tumor)) (UniProt P19137); assay: sedimentation assay of polymerization
[2] = biological target: laminin/entactin complex (laminin-nidogen complex) of the EHS tumor (mouse (endogenous in EHS tumor)) (UniProt P19137); assay: sedimentation assay of polymerization
[3] = biological target: laminin/entactin complex (laminin-nidogen complex) of the EHS tumor (mouse (endogenous in EHS tumor)) (UniProt P19137); assay: extraction of laminin from tissue matrix

Substance | critical concentration of polymerization [1] [mg/mL] | critical concentration of polymerization [2] [mg/mL] | concentration of free laminin over the EHS matrix in buffer at 37 C [3] [mg/mL] | percent of total laminin of the EHS matrix extracted by 10 mM EDTA [3] [%]
laminin (Engelbreth-Holm-Swarm tumor laminin, free of entactin), P19137 25-3083; P02469 22-1786; P02468 34-1607 | 0.1 |  |  | 
laminin/entactin complex (laminin-nidogen complex) of the EHS tumor, P19137 25-3083; P02469 22-1786; P02468 34-1607; P10493 29-1245 |  | 0.1 | 0.08 | 79
